Assay results from patent publication US20160280766A1 (UNIVERSITY OF MARYLAND BALTIMORE, published 2016).
Numbering of substitutions follows the chain as printed. Numbers in names are those of the source.

T1: FcγRIIB (human, UniProt P31994 43-217, limits assumed)
T1 construct: also called CD32; not shown: His-tag fused to the C-terminus
T1 sequence (looked up): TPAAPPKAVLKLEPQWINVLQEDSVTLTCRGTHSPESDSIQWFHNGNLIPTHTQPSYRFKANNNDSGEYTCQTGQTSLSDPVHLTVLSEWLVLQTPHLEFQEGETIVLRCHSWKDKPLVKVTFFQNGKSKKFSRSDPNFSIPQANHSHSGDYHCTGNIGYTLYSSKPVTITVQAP

T2: FcγRIIA (human, UniProt P12318 34-217, limits assumed)
T2 construct: also called CD32; not shown: His-tag fused to the C-terminus
T2 sequence (looked up): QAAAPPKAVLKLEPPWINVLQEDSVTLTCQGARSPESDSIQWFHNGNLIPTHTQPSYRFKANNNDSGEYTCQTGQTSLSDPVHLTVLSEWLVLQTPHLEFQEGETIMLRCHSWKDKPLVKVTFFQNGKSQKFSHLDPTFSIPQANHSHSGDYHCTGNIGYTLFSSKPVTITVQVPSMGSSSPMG

B1: Fc-226^hg/290^hg/E333A/K334A (other)
chain: EPKSCDKTHTNSTCPAPELLGGPSVFLFPPKPKDTLMISRTPEVTCVVVDVSHEDPEVKFNWYVDGVEVHNAKTNSTEEQYNSTYRVVSVLTVLHQDWLNGKEYKCKVSNKALPAPIAATISKAKGQPREPQVYTLPPSREEMTKNQVSLTCLVKGFYPSDIAVEWESNGQPENNYKTTPPVLDSDGSFFLYSKLTVDKSRWQQGNVFSCSVMHEALHNHYTQKSLSLSPGK
modifications: N-linked glycans at Asn297 and at engineered Asn226 and Asn290 (IgG1 heavy chain positions)
B2: IgG1 Fc variant Fc-226^hg/290^hg (other)
chain: B1 chain with A118E, A119K
modifications: N-linked glycans at Asn297 and at engineered Asn226 and Asn290 (IgG1 heavy chain positions)
notes: Both CPP (226-228) and KPR (290-292) replaced by NST
B3: IgG1 Fc variant Fc-226^hg/290^hg/S298A/E333A/K334A (other)
chain: B1 chain with S83A
modifications: N-linked glycans at Asn297 and at engineered Asn226 and Asn290 (IgG1 heavy chain positions)
B4: IgG1 Fc variant Fc-226^hg/290^hg/S298A (other)
chain: B1 chain with S83A, A118E, A119K
modifications: N-linked glycans at Asn297 and at engineered Asn226 and Asn290 (IgG1 heavy chain positions)
B5: Fc-S298A/E333A/K334A (other)
chain: B1 chain with N11C, S12P, T13P, N75K, S76P, T77R, S83A
modifications: N-linked glycan at Asn297
B6: IgG1 Fc variant Fc-290^hg (other)
chain: B1 chain with N11C, S12P, T13P, A118E, A119K
modifications: N-linked glycans at Asn297 and at engineered Asn290 (IgG1 heavy chain positions)
notes: KPR at 290-292 replaced by NST

Biological target: T1, FcγRIIB
Experiment: ratio of SPR KDs, reference Fc-WT

| fold decrease in binding (Fc-variant KD/Fc-WT KD) | Binder |
| --- | --- |
| 12.2 fold | B1 |
| 30.1 fold | B2 |
| 37.8 fold | B3 |
| 60.9 fold | B4 |

Biological target: T3, FcγRIIIA having a Val residue at polymorphic site 158 (human, UniProt P08637 17-208)
T3 construct: also called FcγRIIIA-158V; CD16a; not shown: His-tag fused to the C-terminus
T3 sequence (P08637 17-208 F176V): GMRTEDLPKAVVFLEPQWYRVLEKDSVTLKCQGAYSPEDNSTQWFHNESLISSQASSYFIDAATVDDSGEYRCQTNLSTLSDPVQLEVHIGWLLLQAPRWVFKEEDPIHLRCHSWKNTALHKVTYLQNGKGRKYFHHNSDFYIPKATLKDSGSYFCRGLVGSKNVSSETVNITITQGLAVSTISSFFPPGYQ
Experiment: ratio of SPR KDs, reference Fc-WT

| fold decrease in binding (Fc-variant KD/Fc-WT KD) | Binder |
| --- | --- |
| 17.8 fold | B1 |
| 8.6 fold | B2 |
| 4.8 fold | B3 |
| 6.3 fold | B4 |

Biological target: T4, FcγRIIIA having a Phe residue at polymorphic site 158 (human, UniProt P08637 17-208, limits assumed)
T4 construct: also called FcγRIIIA-158F; CD16a; not shown: His-tag fused to the C-terminus
T4 sequence (P08637 17-208 limits assumed): as the sequence (P08637 17-208 F176V) above, with V160F counted along it
Experiment: ratio of SPR KDs, reference Fc-WT

| fold decrease in binding (Fc-variant KD/Fc-WT KD) | Binder |
| --- | --- |
| 11.8 fold | B1 |
| 12.4 fold | B2 |
| 3.9 fold | B3 |
| 6.9 fold | B4 |

Biological target: T2, FcγRIIA
Experiment: ratio of SPR KDs, reference Fc-WT

| fold decrease in binding (Fc-variant KD/Fc-WT KD) | Binder |
| --- | --- |
| 11.2 fold | B1 |
| 7.6 fold | B2 |
| 10.7 fold | B3 |
| 10.7 fold | B4 |

Biological target: T1, FcγRIIB
Experiment: SPR, Fc captured on Protein A, receptor injected; steady-state analysis

| Kd | Binder |
| --- | --- |
| 20800 nM | B1 |
| 7100 nM | B5 |
| 51200 nM | B2 |
| 64200 nM | B3 |
| 18800 nM | B6 |
| 104000 nM | B4 |

Biological target: T4, FcγRIIIA having a Phe residue at …
Experiment: as above

| Kd | Binder |
| --- | --- |
| 151 nM | B1 |
| 160 nM | B2 |
| 50.1 nM | B3 |
| 66.1 nM | B6 |
| 87.8 nM | B4 |

Biological target: T2, FcγRIIA
Experiment: as above

| Kd | Binder |
| --- | --- |
| 13400 nM | B1 |
| 9100 nM | B2 |
| 12800 nM | B3 |
| 12800 nM | B4 |

Biological target: T3, FcγRIIIA having a Val residue at …
Experiment: SPR, Fc captured on Protein A, receptor injected; 1:1 Langmuir kinetic fit
Protocol: All experiments were performed using a Biacore T100 instrument (GE Healthcare). Protein A (Sigma-Aldrich) (0.1 mg/mL, 10 mM sodium acetate, pH 4.5) was immobilized at a density of 1000 response units (RU) in flow cells 1 and 2 of a CM5 sensor chip via standard amine-coupling procedure according to the manufacturer's instructions (GE Healthcare), using HBS-X buffer (10 mM HEPES, 150 mM NaCl, 0.05% Tween 20) as the running buffer and a flow rate of […]. Flow cell 1 was used as negative control, while flow cell 2 was used to capture wild type or hyper-glycosylated Fc variants in PBS at a density of 100-150 RU. […] Between experiments, the sensor chip surface was regenerated by 2 injections of 15 μL each of 20 mM HCl. Experimental data were corrected for instrument and bulk artifacts by referencing to a control sensor chip surface using Biacore T100 evaluation software 2.0.3 (GE Healthcare). Kinetic parameters of binding were determined using the same software and a 1:1 Langmuir binding model for all FcγRIIIA-158V interactions.

| Kd | Binder |
| --- | --- |
| 57 nM | B1 |
| 2.1 nM | B5 |
| 27.5 nM | B2 |
| 15.5 nM | B3 |
| 20.8 nM | B6 |
| 20.2 nM | B4 |
